Data from PMC7893194.

Biological target: interferon α (IFNα) (UniProt P01563)
Experiment: SPR

Kd: 4.58 nM
B1: human IFNAR1 (receptor)
chain: KNLKSPQKVEVDIIDDNFILRWNRSDESVGNVTFSFDYQKTGMDNWIKLSGCQNITSTKCNFSSLKLNVYEEIKLRIRAEKENTSSWYEVDSFTPFRKAQIGPPEVHLEAEDKAIVIHISPGTKDSVMWALDGLSFTYSLVIWKNSSGVEERIENIYSRHKIYKLSPETTYCLKVKAALLTSWKIGVYSPVHCIKTTVENELPPPENIEVSVQNQNYVLKWDYTYANMTFQVQWLHAFLKRNPGNHLYKWKQIPDCENVKTTQCVFPQNVFQKGIYLLRVQASDGNNTSFWSEEIKFDTEIQAFLLPPVFNIRSLSDSFHIYIGAPKQSGNTPVIQDYPLIYEIIFWENTSNAERKIIEKKTDVTVPNLKPLTVYCVKARAHTMDEKLNKSSVFSDAVCEKTKPGNTSKIWLIVGICIALFALPFVIYAAKVFLRCINYVFFPSLKPSSSIDEYFSEQPLKNLLLSTSEEQIEKCFIIENISTIATVEETNQTDEDHKKYSSQTSQDSGNYSNEDESESKTSEELQQDFV
